# Test results reported in IntAct's records for PubMed 18320024.
# B1: Tetratricopeptide repeat protein 4 (Homo sapiens), O95801 (parent)
# chain: MEQPGQDPTSDDVMDSFLEKFQSQPYRGGFHEDQWEKEFEKVPLFMSRAPSEIDPRENPDLACLQSIIFDEERSPEEQAKTYKDEGNDYFKEKDYKKAVISYTEGLKKKCADPDLNAVLYTNRAAAQYYLGNFRSALNDVTAARKLKPCHLKAIIRGALCHLELKHFAEAVNWCDEGLQIDAKEKKLLEMRAKADKLKRIEQRDVRKANLKEKKERNQNEALLQAIKARNIRLSEAACEDEDSASEGLGELFLDGLSTENPHGARLSLDGQGRLSWPVLFLYPEYAQSDFISAFHEDSRFIDHLMVMFGETPSWDLEQKYCPDNLEVYFEDEDRAELYRVPAKSTLLQVLQHQRYFVKALTPAFLVCVGSSPFCKNFLRGRKVYQIR
# B2: Tetratricopeptide repeat protein 4 (Homo sapiens), O95801 (parent)
# chain: B1 chain
# partner: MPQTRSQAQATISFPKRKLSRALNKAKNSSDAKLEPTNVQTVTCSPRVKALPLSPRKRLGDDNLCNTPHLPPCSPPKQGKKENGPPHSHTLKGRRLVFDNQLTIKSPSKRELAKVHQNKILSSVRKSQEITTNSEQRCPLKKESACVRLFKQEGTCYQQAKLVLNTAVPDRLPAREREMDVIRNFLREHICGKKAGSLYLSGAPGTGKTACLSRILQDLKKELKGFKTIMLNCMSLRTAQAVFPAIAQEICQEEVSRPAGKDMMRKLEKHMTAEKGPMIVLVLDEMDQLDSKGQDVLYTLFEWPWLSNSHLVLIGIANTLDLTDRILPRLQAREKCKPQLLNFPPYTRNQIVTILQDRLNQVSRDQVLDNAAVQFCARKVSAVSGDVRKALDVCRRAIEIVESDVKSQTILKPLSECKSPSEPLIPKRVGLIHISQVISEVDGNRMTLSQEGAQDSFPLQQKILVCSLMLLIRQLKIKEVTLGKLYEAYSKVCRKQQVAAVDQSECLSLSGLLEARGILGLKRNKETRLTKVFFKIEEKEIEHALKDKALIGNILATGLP
# Variants of: B1
# Settings: with hs90b_human HSP90AB1, P08238
# Sequence of hs90b_human HSP90AB1, P08238 (P08238 whole entry): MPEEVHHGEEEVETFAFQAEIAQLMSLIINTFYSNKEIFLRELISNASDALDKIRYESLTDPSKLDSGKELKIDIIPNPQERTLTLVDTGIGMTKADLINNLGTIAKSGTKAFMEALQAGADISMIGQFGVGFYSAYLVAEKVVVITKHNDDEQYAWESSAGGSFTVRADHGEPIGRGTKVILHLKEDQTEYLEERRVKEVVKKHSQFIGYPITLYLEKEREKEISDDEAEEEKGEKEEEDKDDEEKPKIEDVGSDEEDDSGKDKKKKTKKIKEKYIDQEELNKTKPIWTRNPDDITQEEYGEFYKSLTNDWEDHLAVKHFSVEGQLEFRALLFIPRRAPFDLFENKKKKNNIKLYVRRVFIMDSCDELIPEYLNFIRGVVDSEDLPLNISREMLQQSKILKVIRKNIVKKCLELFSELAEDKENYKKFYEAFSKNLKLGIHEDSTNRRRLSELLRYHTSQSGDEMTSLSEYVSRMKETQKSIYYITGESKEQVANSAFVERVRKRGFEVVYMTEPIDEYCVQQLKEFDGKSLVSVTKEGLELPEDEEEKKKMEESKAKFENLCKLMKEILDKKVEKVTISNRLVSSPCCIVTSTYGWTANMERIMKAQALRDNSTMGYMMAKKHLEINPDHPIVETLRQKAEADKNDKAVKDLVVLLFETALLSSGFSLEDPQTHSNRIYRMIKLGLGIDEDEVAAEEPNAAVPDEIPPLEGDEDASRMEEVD
row,effect of a mutation on the interaction,Variant
1,decreasing interaction strength,MEQPGQDPTSDDVMDSFLEKFQSQPYRGGFHEDQWEKEFEKVPLFMSRAPSEIDPRENPDLACLQSIIFDEERSPEAQAKTYKDEGNDYFKEKDYKKAVISYTEGLKKKCADPDLNAVLYTNRAAAQYYLGNFRSALNDVTAARKLKPCHLKAIIRGALCHLELKHFAEAVNWCDEGLQIDAKEKKLLEMRAKADKLKRIEQRDVRKANLKEKKERNQNEALLQAIKARNIRLSEAACEDEDSASEGLGELFLDGLSTENPHGARLSLDGQGRLSWPVLFLYPEYAQSDFISAFHEDSRFIDHLMVMFGETPSWDLEQKYCPDNLEVYFEDEDRAELYRVPAKSTLLQVLQHQRYFVKALTPAFLVCVGSSPFCKNFLRGRKVYQIR [E77A]
2,decreasing interaction strength,MEQPGQDPTSDDVMDSFLEKFQSQPYRGGFHEDQWEKEFEKVPLFMSRAPSEIDPRENPDLACLQSIIFDEERSPEEQAKTYKDEGNDYFKEKDYKKAVISYTEGLKKKCADPDLNAVLYTNRAAAQYYLGNFRSALNDVTAARKLKPCHLKAIIRGALCHLELKHFAEAVNWCDEGLQIDAKEKKLLEMRAKADKLKRIEQRDVRKANLKEKKERKQNEALLQAIKARNIRLSEAACEDEDSASEGLGELFLDGLSTENPHGARLSLDGQGRLSWPVLFLYPEYAQSDFISAFHEDSRFIDHLMVMFGETPSWDLEQKYCPDNLEVYFEDEDRAELYRVPAKSTLLQVLQHQRYFVKALTPAFLVCVGSSPFCKNFLRGRKVYQIR [N217K]
3,with no effect,MEQPGQDPTSDDVMDSFLEKFQSQPYRGGFHEDQWEKEFEKDPLFMSRAPSEIDPRENPDLACLQSIIFDEERSPEEQAKTYKDEGNDYFKEKDYKKAVISYTEGLKKKCADPDLNAVLYTNRAAAQYYLGNFRSALNDVTAARKLKPCHLKAIIRGALCHLELKHFAEAVNWCDEGLQIDAKEKKLLEMRAKADKLKRIEQRDVRKANLKEKKERNQNEALLQAIKARNIRLSEAACEDEDSASEGLGELFLDGLSTENPHGARLSLDGQGRLSWPVLFLYPEYAQSDFISAFHEDSRFIDHLMVMFGETPSWDLEQKYCPDNLEVYFEDEDRAELYRVPAKSTLLQVLQHQRYFVKALTPAFLVCVGSSPFCKNFLRGRKVYQIR [V42D]
4,with no effect,MEQPGQDPTSDDVMDSFLEKFQSQPYRGGFHEDQWEKEFEKVPLFMSRAPSEIDPRENPDLACLQSMIFDEERSPEEQAKTYKDEGNDYFKEKDYKKAVISYTEGLKKKCADPDLNAVLYTNRAAAQYYLGNFRSALNDVTAARKLKPCHLKAIIRGALCHLELKHFAEAVNWCDEGLQIDAKEKKLLEMRAKADKLKRIEQRDVRKANLKEKKERNQNEALLQAIKARNIRLSEAACEDEDSASEGLGELFLDGLSTENPHGARLSLDGQGRLSWPVLFLYPEYAQSDFISAFHEDSRFIDHLMVMFGETPSWDLEQKYCPDNLEVYFEDEDRAELYRVPAKSTLLQVLQHQRYFVKALTPAFLVCVGSSPFCKNFLRGRKVYQIR [I67M]

# Variants of: B1
# Settings: with hsp7c_human HSPA8, P11142
# Sequence of hsp7c_human HSPA8, P11142 (P11142 whole entry, looked up): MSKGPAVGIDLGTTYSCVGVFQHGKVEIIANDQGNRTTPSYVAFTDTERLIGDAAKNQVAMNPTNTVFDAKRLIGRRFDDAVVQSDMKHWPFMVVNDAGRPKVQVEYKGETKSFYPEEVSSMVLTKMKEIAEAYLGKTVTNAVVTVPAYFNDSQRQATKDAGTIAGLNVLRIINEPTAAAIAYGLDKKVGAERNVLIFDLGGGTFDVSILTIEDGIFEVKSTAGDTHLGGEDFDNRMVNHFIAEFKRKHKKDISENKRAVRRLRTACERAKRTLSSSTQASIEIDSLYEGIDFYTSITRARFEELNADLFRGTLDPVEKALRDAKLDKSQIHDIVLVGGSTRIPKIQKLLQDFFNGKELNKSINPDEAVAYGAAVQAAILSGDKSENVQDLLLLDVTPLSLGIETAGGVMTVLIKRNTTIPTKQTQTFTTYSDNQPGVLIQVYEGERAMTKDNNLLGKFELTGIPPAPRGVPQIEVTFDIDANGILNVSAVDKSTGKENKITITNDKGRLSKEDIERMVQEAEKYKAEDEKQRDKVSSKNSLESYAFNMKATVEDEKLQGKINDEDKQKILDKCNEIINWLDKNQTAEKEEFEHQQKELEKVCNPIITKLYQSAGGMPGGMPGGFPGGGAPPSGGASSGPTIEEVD
row,effect of a mutation on the interaction,Variant
1,with no effect,MEQPGQDPTSDDVMDSFLEKFQSQPYRGGFHEDQWEKEFEKVPLFMSRAPSEIDPRENPDLACLQSIIFDEERSPEAQAKTYKDEGNDYFKEKDYKKAVISYTEGLKKKCADPDLNAVLYTNRAAAQYYLGNFRSALNDVTAARKLKPCHLKAIIRGALCHLELKHFAEAVNWCDEGLQIDAKEKKLLEMRAKADKLKRIEQRDVRKANLKEKKERNQNEALLQAIKARNIRLSEAACEDEDSASEGLGELFLDGLSTENPHGARLSLDGQGRLSWPVLFLYPEYAQSDFISAFHEDSRFIDHLMVMFGETPSWDLEQKYCPDNLEVYFEDEDRAELYRVPAKSTLLQVLQHQRYFVKALTPAFLVCVGSSPFCKNFLRGRKVYQIR [E77A]
2,with no effect,MEQPGQDPTSDDVMDSFLEKFQSQPYRGGFHEDQWEKEFEKVPLFMSRAPSEIDPRENPDLACLQSIIFDEERSPEEQAKTYKDEGNDYFKEKDYKKAVISYTEGLKKKCADPDLNAVLYTNRAAAQYYLGNFRSALNDVTAARKLKPCHLKAIIRGALCHLELKHFAEAVNWCDEGLQIDAKEKKLLEMRAKADKLKRIEQRDVRKANLKEKKERKQNEALLQAIKARNIRLSEAACEDEDSASEGLGELFLDGLSTENPHGARLSLDGQGRLSWPVLFLYPEYAQSDFISAFHEDSRFIDHLMVMFGETPSWDLEQKYCPDNLEVYFEDEDRAELYRVPAKSTLLQVLQHQRYFVKALTPAFLVCVGSSPFCKNFLRGRKVYQIR [N217K]
3,decreasing interaction strength,MEQPGQDPTSDDVMDSFLEKFQSQPYRGGFHEDQWEKEFEKDPLFMSRAPSEIDPRENPDLACLQSIIFDEERSPEEQAKTYKDEGNDYFKEKDYKKAVISYTEGLKKKCADPDLNAVLYTNRAAAQYYLGNFRSALNDVTAARKLKPCHLKAIIRGALCHLELKHFAEAVNWCDEGLQIDAKEKKLLEMRAKADKLKRIEQRDVRKANLKEKKERNQNEALLQAIKARNIRLSEAACEDEDSASEGLGELFLDGLSTENPHGARLSLDGQGRLSWPVLFLYPEYAQSDFISAFHEDSRFIDHLMVMFGETPSWDLEQKYCPDNLEVYFEDEDRAELYRVPAKSTLLQVLQHQRYFVKALTPAFLVCVGSSPFCKNFLRGRKVYQIR [V42D]
4,decreasing interaction strength,MEQPGQDPTSDDVMDSFLEKFQSQPYRGGFHEDQWEKEFEKVPLFMSRAPSEIDPRENPDLACLQSMIFDEERSPEEQAKTYKDEGNDYFKEKDYKKAVISYTEGLKKKCADPDLNAVLYTNRAAAQYYLGNFRSALNDVTAARKLKPCHLKAIIRGALCHLELKHFAEAVNWCDEGLQIDAKEKKLLEMRAKADKLKRIEQRDVRKANLKEKKERNQNEALLQAIKARNIRLSEAACEDEDSASEGLGELFLDGLSTENPHGARLSLDGQGRLSWPVLFLYPEYAQSDFISAFHEDSRFIDHLMVMFGETPSWDLEQKYCPDNLEVYFEDEDRAELYRVPAKSTLLQVLQHQRYFVKALTPAFLVCVGSSPFCKNFLRGRKVYQIR [I67M]

# Variants of: B1
# Settings: with hs90b_human HSP90AB1, P08238
# Remark: another data set of the same source
row,effect of a mutation on the interaction,Variant
1,disrupting interaction strength,MEQPGQDPTSDDVMDSFLEKFQSQPYRGGFHEDQWEKEFEKVPLFMSRAPSEIDPRENPDLACLQSIIFDEERSPEEQAKTYKDEGNDYFKEKDYKKAVISYTEGLKKKCADPDLNAVLYTNRAAAQYYLGNFRSALNDVTAARKLKPCHLKAIIEGALCHLELKHFAEAVNWCDEGLQIDAKEKKLLEMRAKADKLKRIEQRDVRKANLKEKKERNQNEALLQAIKARNIRLSEAACEDEDSASEGLGELFLDGLSTENPHGARLSLDGQGRLSWPVLFLYPEYAQSDFISAFHEDSRFIDHLMVMFGETPSWDLEQKYCPDNLEVYFEDEDRAELYRVPAKSTLLQVLQHQRYFVKALTPAFLVCVGSSPFCKNFLRGRKVYQIR [R156E]
2,disrupting interaction strength,MEQPGQDPTSDDVMDSFLEKFQSQPYRGGFHEDQWEKEFEKVPLFMSRAPSEIDPRENPDLACLQSIIFDEERSPEEQAKTYKDEGNDYFKEKDYKKAVISYTEGLKKKCADPDLNAVLYTNRAAAQYYLGNFRSALNDVTAARKLKPCHLEAIIRGALCHLELKHFAEAVNWCDEGLQIDAKEKKLLEMRAKADKLKRIEQRDVRKANLKEKKERNQNEALLQAIKARNIRLSEAACEDEDSASEGLGELFLDGLSTENPHGARLSLDGQGRLSWPVLFLYPEYAQSDFISAFHEDSRFIDHLMVMFGETPSWDLEQKYCPDNLEVYFEDEDRAELYRVPAKSTLLQVLQHQRYFVKALTPAFLVCVGSSPFCKNFLRGRKVYQIR [K152E]
3,disrupting interaction strength,MEQPGQDPTSDDVMDSFLEKFQSQPYRGGFHEDQWEKEFEKVPLFMSRAPSEIDPRENPDLACLQSIIFDEERSPEEQAKTYKDEGNDYFKEKDYKKAVISYTEGLKKKCADPDLNAVLYTNRAAAQYYLGNFRSALNDVTAARKLKPCHLEAIIEGALCHLELKHFAEAVNWCDEGLQIDAKEKKLLEMRAKADKLKRIEQRDVRKANLKEKKERNQNEALLQAIKARNIRLSEAACEDEDSASEGLGELFLDGLSTENPHGARLSLDGQGRLSWPVLFLYPEYAQSDFISAFHEDSRFIDHLMVMFGETPSWDLEQKYCPDNLEVYFEDEDRAELYRVPAKSTLLQVLQHQRYFVKALTPAFLVCVGSSPFCKNFLRGRKVYQIR [K152E;R156E]

# Variants of: B2
# Settings: with cdc6_human CDC6, Q99741
row,effect of a mutation on the interaction,Variant
1,with no effect,MEQPGQDPTSDDVMDSFLEKFQSQPYRGGFHEDQWEKEFEKDPLFMSRAPSEIDPRENPDLACLQSIIFDEERSPEEQAKTYKDEGNDYFKEKDYKKAVISYTEGLKKKCADPDLNAVLYTNRAAAQYYLGNFRSALNDVTAARKLKPCHLKAIIRGALCHLELKHFAEAVNWCDEGLQIDAKEKKLLEMRAKADKLKRIEQRDVRKANLKEKKERNQNEALLQAIKARNIRLSEAACEDEDSASEGLGELFLDGLSTENPHGARLSLDGQGRLSWPVLFLYPEYAQSDFISAFHEDSRFIDHLMVMFGETPSWDLEQKYCPDNLEVYFEDEDRAELYRVPAKSTLLQVLQHQRYFVKALTPAFLVCVGSSPFCKNFLRGRKVYQIR [V42D]
2,disrupting interaction strength,MEQPGQDPTSDDVMDSFLEKFQSQPYRGGFHEDQWEKEFEKVPLFMSRAPSEIDPRENPDLACLQSIIFDEERSPEEQAKTYKDEGNDYFKEKDYKKAVISYTEGLKKKCADPDLNAVLYTNRAAAQYYLGNFRSALNDVTAARKLKPCHLKAIIRGALCHLELKHFAEAVNWCDEGLQIDAKEKKLLEMRAKADKLKRIEQRDVRKANLKEKKERKQNEALLQAIKARNIRLSEAACEDEDSASEGLGELFLDGLSTENPHGARLSLDGQGRLSWPVLFLYPEYAQSDFISAFHEDSRFIDHLMVMFGETPSWDLEQKYCPDNLEVYFEDEDRAELYRVPAKSTLLQVLQHQRYFVKALTPAFLVCVGSSPFCKNFLRGRKVYQIR [N217K]
3,disrupting interaction strength,MEQPGQDPTSDDVMDSFLEKFQSQPYRGGFHEDQWEKEFEKVPLFMSRAPSEIDPRENPDLACLQSIIFDEERSPEAQAKTYKDEGNDYFKEKDYKKAVISYTEGLKKKCADPDLNAVLYTNRAAAQYYLGNFRSALNDVTAARKLKPCHLKAIIRGALCHLELKHFAEAVNWCDEGLQIDAKEKKLLEMRAKADKLKRIEQRDVRKANLKEKKERNQNEALLQAIKARNIRLSEAACEDEDSASEGLGELFLDGLSTENPHGARLSLDGQGRLSWPVLFLYPEYAQSDFISAFHEDSRFIDHLMVMFGETPSWDLEQKYCPDNLEVYFEDEDRAELYRVPAKSTLLQVLQHQRYFVKALTPAFLVCVGSSPFCKNFLRGRKVYQIR [E77A]
4,with no effect,MEQPGQDPTSDDVMDSFLEKFQSQPYRGGFHEDQWEKEFEKVPLFMSRAPSEIDPRENPDLACLQSMIFDEERSPEEQAKTYKDEGNDYFKEKDYKKAVISYTEGLKKKCADPDLNAVLYTNRAAAQYYLGNFRSALNDVTAARKLKPCHLKAIIRGALCHLELKHFAEAVNWCDEGLQIDAKEKKLLEMRAKADKLKRIEQRDVRKANLKEKKERNQNEALLQAIKARNIRLSEAACEDEDSASEGLGELFLDGLSTENPHGARLSLDGQGRLSWPVLFLYPEYAQSDFISAFHEDSRFIDHLMVMFGETPSWDLEQKYCPDNLEVYFEDEDRAELYRVPAKSTLLQVLQHQRYFVKALTPAFLVCVGSSPFCKNFLRGRKVYQIR [I67M]
